These results are taken from PMC9565801 (Science Advances, 2022).

A word on the stoichiometry N: it is the number of molecules, sites or subunits per partner or assembly.

The data set concerns the molecule itself. Description: crystal structure.

B1: ketosteroid isomerase (KSI) Y32F/Y57F from Pseudomonas putida (enzyme)
chain: MNLPTAQEVQGLMARYIELVDVGDIEAIVQMFADDATVEDPFGQPPIHGREQIAAFFRQGLGGGKVRACLTGPVRASHNGCGAMPFRVEMVWNGQPCALDVIDVMRFDEHGRIQTMQAYWSEVNLSVREPQ
For B1, the “stoichiometry N” value amounted to 2.

B2: ketosteroid isomerase (KSI) Y57F from Pseudomonas putida (enzyme)
chain: MNLPTAQEVQGLMARYIELVDVGDIEAIVQMYADDATVEDPFGQPPIHGREQIAAFFRQGLGGGKVRACLTGPVRASHNGCGAMPFRVEMVWNGQPCALDVIDVMRFDEHGRIQTMQAYWSEVNLSVREPQ
Turning to B2, the “stoichiometry N” value turned out to be 2.
